Source: patent publication US20230192896A1

Tests used:
Assay in all cases: not given (FIG. 24A)
[1] = biological target: FX zymogen (UniProt P00742)
[2] = biological target: free FIXa (activated Factor IX) (human) (UniProt P00740)
[3] = biological target: activated Factor X (FXa) (Homo sapiens (Human)) (UniProt P00742)
[4] = biological target: FIX zymogen (non-activatable FIX) (UniProt P00740)

Measured: Kd

activated Factor X (FXa) (Homo sapiens (Human)), sequence (P00742 41-179, chain 1 of 2): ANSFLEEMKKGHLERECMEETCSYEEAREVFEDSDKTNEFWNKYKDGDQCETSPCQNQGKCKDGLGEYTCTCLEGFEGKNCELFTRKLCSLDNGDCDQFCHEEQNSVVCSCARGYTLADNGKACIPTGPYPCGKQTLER
activated Factor X (FXa) (Homo sapiens (Human)), sequence (P00742 235-488, chain 2 of 2): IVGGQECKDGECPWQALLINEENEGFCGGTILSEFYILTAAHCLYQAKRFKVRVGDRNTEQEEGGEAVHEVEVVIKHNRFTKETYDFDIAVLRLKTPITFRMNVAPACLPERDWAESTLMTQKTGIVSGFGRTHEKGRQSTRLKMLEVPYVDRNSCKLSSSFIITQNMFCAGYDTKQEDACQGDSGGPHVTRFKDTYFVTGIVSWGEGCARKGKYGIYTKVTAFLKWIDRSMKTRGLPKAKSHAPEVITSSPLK
FX zymogen, sequence (P00742 41-179, chain 1 of 2): as the sequence (P00742 41-179, chain 1 of 2) above
FX zymogen, sequence (P00742 183-488, chain 2 of 2): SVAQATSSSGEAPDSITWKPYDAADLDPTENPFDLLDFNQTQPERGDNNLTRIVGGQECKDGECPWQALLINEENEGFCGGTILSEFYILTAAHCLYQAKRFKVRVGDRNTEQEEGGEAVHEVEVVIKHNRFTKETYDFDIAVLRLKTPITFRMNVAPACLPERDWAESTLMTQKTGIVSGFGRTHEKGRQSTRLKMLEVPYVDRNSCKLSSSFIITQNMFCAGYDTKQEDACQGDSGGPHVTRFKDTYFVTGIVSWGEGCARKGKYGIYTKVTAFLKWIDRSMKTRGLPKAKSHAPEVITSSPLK

emicizumab (ACE910) sequence identical bispecific antibody (emicizumab biosimilar)
1000 nM: [1] | [2] | [3] | [4]
